Data from US20260248972A1, “DUAL RECEPTOR TARGETING RADIOLIGANDS AND USES THEREOF RELATED APPLICATIONS” (priority 2022, published 2026).

Assay: in vivo
Conditions: BALB/c nude, mouse, in vivo, iv, total radioactivity
In short: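 Tissue uptake given as % ID and % ID/g from γ counting of organs taken 4, 24 and 72 h after injection into BALB/c nude mice carrying subcutaneous AR42J xenografts (0.05-0.50 g). Tracers were ^177Lu-labelled at 95° C for 15 min in pH 4.5 NaOAc buffer and used neat or diluted in PBS containing 3 mg/mL ascorbate.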

For `CC(C)(C)C(=O)CN1C(=O)[C@H](NC(=O)Nc2cccc(C(=O)N[C@@H](CCC(=O)N[C@@H](CCC(=O)N[C@@H](CCC(=O)N[C@@H](CCCCNC(=O)COCCOCCNC(=O)COCCOCCNC(=O)CCC(C(=O)O)N3CCN(CC(=O)O)CCN(CC(=O)O)CCN(CC(=O)O)CC3)C(N)=O)C(=O)O)C(=O)O)C(=O)O)c2)CN(C2CCCCC2)c2ccccc21` (stereo partly drawn) [^177Lu-C-4, metal not drawn, reference compound], the tissue uptake at 4 h (% ID/g Blood) was 0.09 %ID/g, the tissue uptake at 24 h (% ID/g Blood) was 0.01 %ID/g and the tissue uptake at 4 h (% ID/g Femur) was 0.04 %ID/g. The tissue uptake at 24 h (% ID/g Femur) was 0.04 %ID/g, the tissue uptake at 4 h (% ID/g Heart) was 0.07 %ID/g and the tissue uptake at 24 h (% ID/g Heart) was 0.03 %ID/g. It also gave a tissue uptake at 4 h (% ID/g Intestine) of 0.12 %ID/g, a tissue uptake at 24 h (% ID/g Intestine) of 0.04 %ID/g and a tissue uptake at 4 h (% ID/g Kidney) of 3.38 %ID/g. For the same molecule, the tissue uptake at 24 h (% ID/g Kidney) was 1.32 %ID/g, the tissue uptake at 4 h (% ID/g Liver) was 0.17 %ID/g and the tissue uptake at 24 h (% ID/g Liver) was 0.11 %ID/g. The tissue uptake at 4 h (% ID/g Lung) was 0.07 %ID/g, the tissue uptake at 24 h (% ID/g Lung) was 0.03 %ID/g and the tissue uptake at 4 h (% ID/g Muscle) was 0.02 %ID/g. It also gave a tissue uptake at 24 h (% ID/g Muscle) of 0.01 %ID/g, a tissue uptake at 4 h (% ID/g Pancreas) of 0.03 %ID/g and a tissue uptake at 24 h (% ID/g Pancreas) of 0.01 %ID/g. The tissue uptake at 4 h (% ID/g Spleen) was 0.06 %ID/g, the tissue uptake at 24 h (% ID/g Spleen) was 0.02 %ID/g and the tissue uptake at 4 h (% ID/g Stomach) was 0.06 %ID/g. For the same molecule, the tissue uptake at 24 h (% ID/g Stomach) was 0.03 %ID/g, the tissue uptake at 4 h (% ID/g Tumor) was 4.69 %ID/g and the tissue uptake at 24 h (% ID/g Tumor) was 1.44 %ID/g.
Work on `C[C@@H](O)[C@H](NC(=O)[C@@H]1CSSC[C@H](NC(=O)[C@@H](Cc2ccccc2)NC(=O)[C@H](CCCCNC(=O)c2cccc(NC(=O)N[C@@H]3CN(C4CCCCC4)c4ccccc4N(CC(=O)C(C)(C)C)C3=O)c2)NC(=O)COCCOCCNC(=O)CN2CCN(CC(=O)O)CCN(CC(=O)O)CCN(CC(=O)O)CC2)C(=O)N[C@@H](Cc2ccc(O)cc2)C(=O)N[C@H](Cc2c[nH]c3ccccc23)C(=O)N[C@@H](CCCCN)C(=O)N[C@@H]([C@@H](C)O)C(=O)N1)C(=O)O` [^177Lu-I-35, metal not drawn] yielded a tissue uptake at 4 h (% ID/g Adrenal gland) of 2.8 %ID/g, a tissue uptake at 24 h (% ID/g Adrenal gland) of 2.3 %ID/g and a tissue uptake at 72 h (% ID/g Adrenal gland) of 0.34 %ID/g. It also gave a tissue uptake at 4 h (% ID/g Blood) of 1.98 %ID/g, a tissue uptake at 24 h (% ID/g Blood) of 0.11 %ID/g and a tissue uptake at 72 h (% ID/g Blood) of 0.03 %ID/g. For the same molecule, the tissue uptake at 4 h (% ID/g Fat) was 3.49 %ID/g, the tissue uptake at 24 h (% ID/g Fat) was 0.75 %ID/g and the tissue uptake at 72 h (% ID/g Fat) was 0.41 %ID/g. The tissue uptake at 4 h (% ID/g Femur) was 1.01 %ID/g, the tissue uptake at 24 h (% ID/g Femur) was 0.52 %ID/g and the tissue uptake at 72 h (% ID/g Femur) was 0.21 %ID/g. For the same molecule, the tissue uptake at 4 h (% ID/g Heart) was 1.26 %ID/g, the tissue uptake at 24 h (% ID/g Heart) was 0.56 %ID/g and the tissue uptake at 72 h (% ID/g Heart) was 0.25 %ID/g. The tissue uptake at 4 h (% ID/g Intestine) was 2.36 %ID/g, the tissue uptake at 24 h (% ID/g Intestine) was 0.84 %ID/g and the tissue uptake at 72 h (% ID/g Intestine) was 0.72 %ID/g. For the same molecule, the tissue uptake at 4 h (% ID/g Kidney) was 18.5 %ID/g, the tissue uptake at 24 h (% ID/g Kidney) was 6.06 %ID/g and the tissue uptake at 72 h (% ID/g Kidney) was 4.51 %ID/g. For the same molecule, the tissue uptake at 4 h (% ID/g Liver) was 18.1 %ID/g, the tissue uptake at 24 h (% ID/g Liver) was 5.06 %ID/g and the tissue uptake at 72 h (% ID/g Liver) was 2.41 %ID/g. For the same molecule, the tissue uptake at 4 h (% ID/g Lung) was 3.44 %ID/g, the tissue uptake at 24 h (% ID/g Lung) was 1.73 %ID/g and the tissue uptake at 72 h (% ID/g Lung) was 0.66 %ID/g. For the same molecule, the tissue uptake at 4 h (% ID/g Muscle) was 0.42 %ID/g, the tissue uptake at 24 h (% ID/g Muscle) was 0.12 %ID/g and the tissue uptake at 72 h (% ID/g Muscle) was 0.03 %ID/g. It also gave a tissue uptake at 4 h (% ID/g Pancreas) of 5.03 %ID/g, a tissue uptake at 24 h (% ID/g Pancreas) of 0.96 %ID/g and a tissue uptake at 72 h (% ID/g Pancreas) of 0.34 %ID/g. It also gave a tissue uptake at 4 h (% ID/g Spleen) of 0.82 %ID/g, a tissue uptake at 24 h (% ID/g Spleen) of 0.47 %ID/g and a tissue uptake at 72 h (% ID/g Spleen) of 0.28 %ID/g. For the same molecule, the tissue uptake at 4 h (% ID/g Stomach) was 6.98 %ID/g, the tissue uptake at 24 h (% ID/g Stomach) was 3.09 %ID/g and the tissue uptake at 72 h (% ID/g Stomach) was 2.29 %ID/g. The tissue uptake at 4 h (% ID/g Tumor) was 27.2 %ID/g, the tissue uptake at 24 h (% ID/g Tumor) was 17.8 %ID/g and the tissue uptake at 72 h (% ID/g Tumor) was 18 %ID/g.
Work on `C[C@@H](O)[C@H](NC(=O)[C@@H]1CSSC[C@H](NC(=O)[C@@H](Cc2ccccc2)NC(=O)[C@H](CCCCNC(=O)COCCOCCNC(=O)c2cccc(NC(=O)N[C@@H]3CN(C4CCCCC4)c4ccccc4N(CC(=O)C(C)(C)C)C3=O)c2)NC(=O)CN2CCN(CC(=O)O)CCN(CC(=O)O)CCN(CC(=O)O)CC2)C(=O)N[C@@H](Cc2ccc(O)cc2)C(=O)N[C@H](Cc2c[nH]c3ccccc23)C(=O)N[C@@H](CCCCN)C(=O)N[C@@H]([C@@H](C)O)C(=O)N1)C(=O)O` [^177Lu-I-36, metal not drawn] yielded a tissue uptake at 4 h (% ID/g Adrenal gland) of 2.48 %ID/g, a tissue uptake at 24 h (% ID/g Adrenal gland) of 1.67 %ID/g and a tissue uptake at 72 h (% ID/g Adrenal gland) of 0.87 %ID/g. For the same molecule, the tissue uptake at 4 h (% ID/g Blood) was 2.09 %ID/g, the tissue uptake at 24 h (% ID/g Blood) was 0.7 %ID/g and the tissue uptake at 72 h (% ID/g Blood) was 0.21 %ID/g. For the same molecule, the tissue uptake at 4 h (% ID/g Fat) was 3.32 %ID/g, the tissue uptake at 24 h (% ID/g Fat) was 2.39 %ID/g and the tissue uptake at 72 h (% ID/g Fat) was 1.12 %ID/g. The tissue uptake at 4 h (% ID/g Femur) was 0.79 %ID/g, the tissue uptake at 24 h (% ID/g Femur) was 0.76 %ID/g and the tissue uptake at 72 h (% ID/g Femur) was 0.59 %ID/g. The tissue uptake at 4 h (% ID/g Heart) was 1.36 %ID/g, the tissue uptake at 24 h (% ID/g Heart) was 0.85 %ID/g and the tissue uptake at 72 h (% ID/g Heart) was 0.47 %ID/g. The tissue uptake at 4 h (% ID/g Intestine) was 2.27 %ID/g, the tissue uptake at 24 h (% ID/g Intestine) was 1.29 %ID/g and the tissue uptake at 72 h (% ID/g Intestine) was 1.39 %ID/g. For the same molecule, the tissue uptake at 4 h (% ID/g Kidney) was 20.7 %ID/g, the tissue uptake at 24 h (% ID/g Kidney) was 18.4 %ID/g and the tissue uptake at 72 h (% ID/g Kidney) was 14.2 %ID/g. It also gave a tissue uptake at 4 h (% ID/g Liver) of 12 %ID/g, a tissue uptake at 24 h (% ID/g Liver) of 7.22 %ID/g and a tissue uptake at 72 h (% ID/g Liver) of 3.99 %ID/g. It also gave a tissue uptake at 4 h (% ID/g Lung) of 2.89 %ID/g, a tissue uptake at 24 h (% ID/g Lung) of 1.72 %ID/g and a tissue uptake at 72 h (% ID/g Lung) of 1.36 %ID/g. It also gave a tissue uptake at 4 h (% ID/g Muscle) of 0.41 %ID/g, a tissue uptake at 24 h (% ID/g Muscle) of 0.25 %ID/g and a tissue uptake at 72 h (% ID/g Muscle) of 0.13 %ID/g. For the same molecule, the tissue uptake at 4 h (% ID/g Pancreas) was 5.66 %ID/g, the tissue uptake at 24 h (% ID/g Pancreas) was 3.34 %ID/g and the tissue uptake at 72 h (% ID/g Pancreas) was 1.28 %ID/g. For the same molecule, the tissue uptake at 4 h (% ID/g Spleen) was 0.97 %ID/g, the tissue uptake at 24 h (% ID/g Spleen) was 0.85 %ID/g and the tissue uptake at 72 h (% ID/g Spleen) was 0.36 %ID/g. For the same molecule, the tissue uptake at 4 h (% ID/g Stomach) was 6.6 %ID/g, the tissue uptake at 24 h (% ID/g Stomach) was 5.96 %ID/g and the tissue uptake at 72 h (% ID/g Stomach) was 3.8 %ID/g. For the same molecule, the tissue uptake at 4 h (% ID/g Tumor) was 45.1 %ID/g, the tissue uptake at 24 h (% ID/g Tumor) was 35.2 %ID/g and the tissue uptake at 72 h (% ID/g Tumor) was 36.4 %ID/g.
